According to article PMC7688916 (2020):
Positions count from the first letter of the chain named. Names and notes keep the numbering of the source. Read-outs that look alike come from different tables or passages of the source.

Key:
Assay in all cases: split reporter (BiFC, NanoBiT); split-GFP (mGFP2 split between residues 157 and 158) in Hfx. volcanii transformants in vivo; eight combinations of fusions a pair, highest relative fluorescence (rf) given; cells in basal salts (3 M NaCl, 150 mM MgSO4, 50 mM KCl) at OD600 1; rf > 5 clear interaction, rf < 1 no interaction
[1] = target: GvpL fused to NGFP or CGFP (split-GFP) (Halobacterium salinarum PHH1)
[2] = target: GvpF fused to NGFP or CGFP (split-GFP) (Halobacterium salinarum PHH1)
[3] = target: GvpG fused to NGFP or CGFP (split-GFP) (Halobacterium salinarum PHH1)
[4] = target: GvpI fused to NGFP or CGFP (split-GFP) (Halobacterium salinarum PHH1)
[5] = target: GvpF fused to NGFP or CGFP (split-GFP) (Halobacterium salinarum PHH1); remark: listed apart in the source
[6] = target: GvpG fused to NGFP or CGFP (split-GFP) (Halobacterium salinarum PHH1); remark: listed apart in the source
[7] = target: GvpH fused to NGFP or CGFP (split-GFP) (Halobacterium salinarum PHH1)
[8] = target: GvpI fused to NGFP or CGFP (split-GFP) (Halobacterium salinarum PHH1); remark: listed apart in the source
[9] = target: GvpJ fused to NGFP or CGFP (split-GFP) (Halobacterium salinarum PHH1)
[10] = target: GvpK fused to NGFP or CGFP (split-GFP) (Halobacterium salinarum PHH1)
[11] = target: GvpL fused to NGFP or CGFP (split-GFP) (Halobacterium salinarum PHH1); remark: listed apart in the source
[12] = target: GvpM fused to NGFP or CGFP (split-GFP) (Halobacterium salinarum PHH1)

Sequence of GvpF fused to NGFP or CGFP (split-GFP) (Halobacterium salinarum PHH1) (P24370 whole entry, the tested form may be a part): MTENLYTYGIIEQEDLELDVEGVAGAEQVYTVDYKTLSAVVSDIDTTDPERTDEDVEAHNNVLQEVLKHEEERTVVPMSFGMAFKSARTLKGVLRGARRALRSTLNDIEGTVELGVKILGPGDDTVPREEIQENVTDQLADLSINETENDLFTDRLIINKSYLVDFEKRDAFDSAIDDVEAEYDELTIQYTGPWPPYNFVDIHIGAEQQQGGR
Sequence of GvpL fused to NGFP or CGFP (split-GFP) (Halobacterium salinarum PHH1) (Q9HI27 whole entry, the tested form may be a part): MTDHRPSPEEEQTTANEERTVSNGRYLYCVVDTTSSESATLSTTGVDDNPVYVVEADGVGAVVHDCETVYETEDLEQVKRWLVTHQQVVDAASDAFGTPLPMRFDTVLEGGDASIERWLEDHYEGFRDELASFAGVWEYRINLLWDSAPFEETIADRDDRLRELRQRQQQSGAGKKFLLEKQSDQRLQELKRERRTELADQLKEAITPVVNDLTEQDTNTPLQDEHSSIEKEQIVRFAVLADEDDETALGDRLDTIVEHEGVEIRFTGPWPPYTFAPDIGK
Sequence of GvpG fused to NGFP or CGFP (split-GFP) (Halobacterium salinarum PHH1) (P24371 whole entry, the tested form may be a part): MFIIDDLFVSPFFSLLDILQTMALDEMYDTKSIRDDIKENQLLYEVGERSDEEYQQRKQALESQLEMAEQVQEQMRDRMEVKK

With “GvpK fused to NGFP or CGFP (split-GFP) (natural protein)” the highest relative fluorescence (rf) [1] was 7.4 rf.

With “GvpI fused to NGFP or CGFP (split-GFP) (natural protein)” the highest relative fluorescence (rf) [2] was 6.3 rf and the highest relative fluorescence (rf) [1] was 13.7 rf.

In the case of “GvpG fused to NGFP or CGFP (split-GFP) (natural protein)”, the highest relative fluorescence (rf) [2] is reported as 5 rf, the relative fluorescence (rf) [3] is reported as 3.5 rf and the highest relative fluorescence (rf) [1] is reported as 77.5 rf.

“GvpF fused to NGFP or CGFP (split-GFP) (natural protein)” showed a relative fluorescence (rf) [2] of 1.5 rf and a highest relative fluorescence (rf) [1] of 16.6 rf.

“GvpH fused to NGFP or CGFP (split-GFP) (natural protein)” showed a highest relative fluorescence (rf) [2] of 6.3 rf, a highest relative fluorescence (rf) [4] of 20 rf and a highest relative fluorescence (rf) [1] of 11.4 rf.

B1: GvpA fused to NGFP or CGFP (split-GFP) (natural protein)
chain: MAQPDSSGLAEVLDRVLDKGVVVDVWARVSLVGIEILTVEARVVAASVDTFLHYAEEIAKIEQAELTAGAEAAPEA
B1 was tested, and the highest relative fluorescence (rf) [5] was 20 rf, the relative fluorescence (rf) [5] was 15 to 18 rf and the highest relative fluorescence (rf) [6] was under 1 rf. It also gave a highest relative fluorescence (rf) [7] of under 1 rf, a highest relative fluorescence (rf) [8] of under 1 rf and a highest relative fluorescence (rf) [9] of under 1 rf. The highest relative fluorescence (rf) [10] was under 1 rf, the highest relative fluorescence (rf) [11] was under 1 rf and the highest relative fluorescence (rf) [12] was under 1 rf.

In the case of MAQPDSSGLAEVLDRVLDKGVV (domain or fragment) [GvpA fragment A1-22 fused to NGFP or CGFP (split-GFP)], the highest relative fluorescence (rf) [5] is reported as 41 rf.

Molecule GVVVDVWARVSLVGIEILTVEARVVAAS (domain or fragment) [GvpA fragment A20-47 fused to NGFP or CGFP (split-GFP)] has a highest relative fluorescence (rf) [5] of under 1 rf.

In the case of VAASVDTFLHYAEEIAKIEQAELTAGAEAAPEA (domain or fragment) [GvpA fragment A44-76 fused to NGFP or CGFP (split-GFP)], the highest relative fluorescence (rf) [5] is reported as under 1 rf.

B2: GvpA G20D (split-GFP fusion) (natural protein)
chain: B1 chain with G20D
For B2, the relative fluorescence (rf) [5] was under 6 rf.

B3: GvpA G20A (split-GFP fusion) (natural protein)
chain: B1 chain with G20A
For B3, the relative fluorescence (rf) [5] was under 6 rf.

B4: GvpA D24A (split-GFP fusion) (natural protein)
chain: B1 chain with D24A
With B4 the relative fluorescence (rf) [5] was under 6 rf.

B5: GvpA D24Y (split-GFP fusion) (natural protein)
chain: B1 chain with D24Y
In the case of B5, the relative fluorescence (rf) [5] is reported as under 6 rf.

B6: GvpA R28A (split-GFP fusion) (natural protein)
chain: B1 chain with R28A
B6 gave a relative fluorescence (rf) [5] of under 6 rf.

B7: GvpA R28D (split-GFP fusion) (natural protein)
chain: B1 chain with R28D
Molecule B7 has a relative fluorescence (rf) [5] of under 6 rf.

B8: GvpA E40A (split-GFP fusion) (natural protein)
chain: B1 chain with E40A
With B8 the relative fluorescence (rf) [5] was under 6 rf.
